Test [1] addresses T1, human IL-33 (R&D Systems, #3625-IL-010/CF) (human) (UniProt O95760).
T1 sequence (looked up): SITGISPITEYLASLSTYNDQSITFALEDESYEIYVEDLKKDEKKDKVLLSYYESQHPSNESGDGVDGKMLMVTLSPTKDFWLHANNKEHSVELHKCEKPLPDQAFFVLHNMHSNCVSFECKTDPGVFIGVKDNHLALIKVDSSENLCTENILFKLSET

Test [2] has as its target human IL-33 N-His (human).
In test [3] the target is T1, human IL-33 (R&D Systems, #3625-IL-010/CF) (human). The source holds these as a separate data set.
Test [4] concerns the target human ST2L on HEK-BLUE IL-33/IL-1beta cells (human) (UniProt Q01638).
Test [5] concerns the target T1, human IL-33 (R&D Systems, #3625-IL-010/CF) (human). Put plainly: cell-based or functional assay.
Test [6] has as its target cynomolgus monkey N-terminal 6-His-tagged and C-terminal Avi-tagged IL-33 (S112-T270) (cynomolgus monkey). Briefly: cell-based or functional assay.
For test [7], the target named is T1, human IL-33 (R&D Systems, #3625-IL-010/CF) (human). The source holds these as a separate data set.
Test [8] shares this target. This is another data set of the same source.
Test [9] has as its target human IL-33 (cell-based blocking assay of Example 2) (human) (UniProt O95760).
Test [10] deals with cyno IL-33 (cell-based blocking assay of Example 2) (cynomolgus monkey).
Sequence of cyno IL-33 (cell-based blocking assay of Example 2) (cynomolgus monkey) (chain, as listed by the source): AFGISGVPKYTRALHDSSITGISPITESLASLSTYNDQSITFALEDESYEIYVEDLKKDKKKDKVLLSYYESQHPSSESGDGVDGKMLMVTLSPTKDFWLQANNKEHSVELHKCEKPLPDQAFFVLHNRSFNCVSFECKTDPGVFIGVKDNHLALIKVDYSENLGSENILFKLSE

Sequence of cynomolgus monkey N-terminal 6-His-tagged and C-terminal Avi-tagged IL-33 (S112-T270) (cynomolgus monkey) (chain, as listed by the source limits assumed): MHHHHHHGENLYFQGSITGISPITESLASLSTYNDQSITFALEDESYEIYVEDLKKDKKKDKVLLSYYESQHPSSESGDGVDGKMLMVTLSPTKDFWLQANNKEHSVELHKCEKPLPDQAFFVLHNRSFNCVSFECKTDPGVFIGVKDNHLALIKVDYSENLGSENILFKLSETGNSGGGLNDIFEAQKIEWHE
Sequence of human ST2L on HEK-BLUE IL-33/IL-1beta cells (human) (Q01638 19-556 limits assumed): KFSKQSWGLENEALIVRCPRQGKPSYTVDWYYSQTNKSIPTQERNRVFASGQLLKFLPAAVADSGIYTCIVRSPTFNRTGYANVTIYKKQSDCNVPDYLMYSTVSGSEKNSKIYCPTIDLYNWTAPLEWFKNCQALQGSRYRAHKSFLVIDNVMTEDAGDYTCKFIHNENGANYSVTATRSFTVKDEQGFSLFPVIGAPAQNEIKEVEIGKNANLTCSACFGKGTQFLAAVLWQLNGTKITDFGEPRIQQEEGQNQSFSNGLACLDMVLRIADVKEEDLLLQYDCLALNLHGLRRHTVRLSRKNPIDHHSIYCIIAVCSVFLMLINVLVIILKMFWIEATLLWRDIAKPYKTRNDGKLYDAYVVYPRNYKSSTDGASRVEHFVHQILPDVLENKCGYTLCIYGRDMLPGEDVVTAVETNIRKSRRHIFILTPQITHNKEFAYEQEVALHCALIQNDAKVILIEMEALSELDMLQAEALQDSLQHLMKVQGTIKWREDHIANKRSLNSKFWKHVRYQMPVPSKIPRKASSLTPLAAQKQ

Consider control IgG4 antibody, for which, in test [1], the Ph-p38 MFI at 2 nM Ab (500 pM human IL-33, primary basophils) was found to be 110 MFI. In [2], this substance yielded an IC50 as printed in the table (fit value of a flat curve: Control IgG4 stays at about 115-125 % IL-33 activity up to 1e4 pM, no inhibition); SEAP reporter, HEK-BLUE IL-33 cells, 15 pM human IL-33 N-His of 7.63e-06 pM and an IC90 as printed in the table (fit value of a flat curve: Control IgG4 stays at about 115-125 % IL-33 activity up to 1e4 pM, no inhibition); SEAP reporter, HEK-BLUE IL-33 cells, 15 pM human IL-33 N-His of 1.08e-06 pM. Moreover, in [3], the Ph-p38 MFI at 0.4 nM Ab (500 pM human IL-33, primary basophils) worked out at 152 MFI.

The substance human IL-33 N-His (ligand) returned an EC50 (SEAP reporter OD 620, HEK-BLUE IL-33/IL-1beta cells) in test [4] of 0.006 nM.

With “sST2-LZ (sST2 (M1-F328) C-terminal leucine zipper (LZ)-Flag-His) (receptor)”, the Ph-p38 MFI at 2 nM sST2 (500 pM human IL-33, primary basophils) in test [1] worked out at 40 MFI. In test [5], the HEK-BLUE SEAP reporter IC50 was 0.027 nM and the IFN-γ secretion from primary NK cells, IC50 was 0.15 nM. The HEK-BLUE SEAP reporter IC50 in [6] was found to be 0.03 nM. Also, in [7], the IC50 (read off the curve) was found to be 0.0008 nM. The substance further came in with an IC50, IL-33-induced phospho-p38 in primary human basophils, 500 pM hIL-33 in test [8] of 7.9e-13 M. In test [9], this substance came in with an IC50 (HEK-BLUE SEAP reporter, IL-33 blocking) of 0.0122 nM and an IC90 (HEK-BLUE SEAP reporter, IL-33 blocking) of 0.0467 nM. In test [10], this substance registered an IC50 (HEK-BLUE SEAP reporter, IL-33 blocking) of 0.0018 nM and an IC90 (HEK-BLUE SEAP reporter, IL-33 blocking) of 0.0036 nM. For the same substance, in test [2], the IC50; SEAP reporter, HEK-BLUE IL-33 cells, 15 pM human IL-33 N-His, 20 h is 62.1 pM and the IC90; SEAP reporter, HEK-BLUE IL-33 cells, 15 pM human IL-33 N-His, 20 h came to 257 pM. Further, the Ph-p38 MFI at 0.4 nM sST2 (500 pM human IL-33, primary basophils) in test [3] amounted to 113 MFI.

Values taken from patent US20190092852A1.
